Experimental data from publication PMC10786891, “Massively parallel profiling of RNA-targeting CRISPR-Cas13d”.
Changes are numbered by the printed parent chain. Numbers in names are those of the source.

T1: EsCas13d, nuclease-dead (Eubacterium siraeum, UniProt B0MS50, R295A;H300A;R849A;H854A)
T1 sequence: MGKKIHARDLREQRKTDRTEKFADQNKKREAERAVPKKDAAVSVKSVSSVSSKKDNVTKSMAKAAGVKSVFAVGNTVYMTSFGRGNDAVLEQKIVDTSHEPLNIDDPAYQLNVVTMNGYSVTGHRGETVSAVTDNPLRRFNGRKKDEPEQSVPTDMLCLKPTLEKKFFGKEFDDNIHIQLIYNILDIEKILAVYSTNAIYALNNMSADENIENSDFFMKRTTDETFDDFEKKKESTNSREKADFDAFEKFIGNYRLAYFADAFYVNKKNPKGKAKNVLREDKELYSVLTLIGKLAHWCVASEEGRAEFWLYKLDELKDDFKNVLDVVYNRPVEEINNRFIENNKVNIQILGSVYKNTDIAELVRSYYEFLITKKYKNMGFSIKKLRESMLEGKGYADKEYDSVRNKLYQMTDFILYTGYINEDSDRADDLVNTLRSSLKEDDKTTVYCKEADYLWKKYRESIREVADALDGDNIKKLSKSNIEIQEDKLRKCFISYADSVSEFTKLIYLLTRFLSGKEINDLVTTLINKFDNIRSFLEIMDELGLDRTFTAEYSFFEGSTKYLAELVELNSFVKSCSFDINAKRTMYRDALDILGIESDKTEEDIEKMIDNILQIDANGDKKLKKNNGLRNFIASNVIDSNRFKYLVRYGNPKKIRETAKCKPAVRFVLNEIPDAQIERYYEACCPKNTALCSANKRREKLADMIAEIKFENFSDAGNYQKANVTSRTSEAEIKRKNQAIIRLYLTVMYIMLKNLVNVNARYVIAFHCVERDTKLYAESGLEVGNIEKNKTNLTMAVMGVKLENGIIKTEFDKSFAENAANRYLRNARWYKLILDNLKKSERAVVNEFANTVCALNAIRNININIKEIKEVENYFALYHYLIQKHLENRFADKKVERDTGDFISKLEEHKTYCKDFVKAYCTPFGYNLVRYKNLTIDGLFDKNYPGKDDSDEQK

B1: target 1 C6A,G15C (mixed)
RNA 1: CACCCGUGCAAAAAUGCAGGGGUCUAAAACUGAGCGGAUAACCUCUCUAUGG
RNA 2: GGGAAUGGAUCCACAUCUACGAAUUCGUACCAUAGACAGGUUAUCAGCUCACCGAGAUCGGAAGAGCACACGU
B2: target 1 insC 3' of 12,insG 3' of 3 (mixed)
RNA 1: B1 RNA 1
RNA 2: GGGAAUGGAUCCACAUCUACGAAUUCGUACCAUAGAGAGGCUUAUCCGCUGCACCGAGAUCGGAAGAGCACACGU
B3: target 1 insC 3' of 14,insA 3' of 5 (mixed)
RNA 1: B1 RNA 1
RNA 2: B2 RNA 2 with G39C, C41G, C49A, U50C, G51U
B4: target 1 insC 3' of 8,insG 3' of 4 (mixed)
RNA 1: B1 RNA 1
RNA 2: B2 RNA 2 with C41U, U43A, A44U, U45C, U50G, G51U
B5: target 1 insG 3' of 11,insU 3' of 4 (mixed)
RNA 1: B1 RNA 1
RNA 2: B2 RNA 2 with C41U, U42G, G51U
B6: target 1 U11A,A20C (mixed)
RNA 1: B1 RNA 1
RNA 2: B1 RNA 2 with A32C, C37G, U41A, A46C
B7: target 1 U11A,C22A (mixed)
RNA 1: B1 RNA 1
RNA 2: B1 RNA 2 with C30A, C37G, U41A, A46C
B8: target 1 insC 3' of 9,insU 3' of 2 (mixed)
RNA 1: B1 RNA 1
RNA 2: B2 RNA 2 with C41U, U43A, A44C, G51C, C52U
B9: target 1 G13A,A18C (mixed)
RNA 1: B1 RNA 1
RNA 2: B1 RNA 2 with A34C, C37G, G39A, A46C
B10: target 1 insU 3' of 20,insA 3' of 8 (mixed)
RNA 1: B1 RNA 1
RNA 2: GGGAAUGGAUCCACAUCUACGAAUUCGUACCAUUAGAGAGGUUAUACCGCUCACCGAGAUCGGAAGAGCACACGU
B11: target 1 insA 3' of 13,insU 3' of 5 (mixed)
RNA 1: B1 RNA 1
RNA 2: B2 RNA 2 with G40A, C41G, C49U, U50C, G51U
B12: target 1 insA 3' of 22,insG 3' of 9 (mixed)
RNA 1: B1 RNA 1
RNA 2: B10 RNA 2 with C31A, A32C, U33A, U45G, A46U
B13: target 1 insA 3' of 13,insA 3' of 5 (mixed)
RNA 1: B1 RNA 1
RNA 2: B2 RNA 2 with G40A, C41G, C49A, U50C, G51U
B14: target 1 insU 3' of 17,insU 3' of 17 (mixed)
RNA 1: B1 RNA 1
RNA 2: GGGAAUGGAUCCACAUCUACGAAUUCGUACCAUAGUUAGAGGUUAUCCGCUCACCGAGAUCGGAAGAGCACACGU
B15: target 1 U10C,A20U (mixed)
RNA 1: B1 RNA 1
RNA 2: B1 RNA 2 with A32U, C37G, U42C, A46C
B16: target 1 insA 3' of 4,insA 3' of 3 (mixed)
RNA 1: B1 RNA 1
RNA 2: B2 RNA 2 with C41U, U43A, A44U, U45C, C47G, G48C, C49A, G51A
B17: target 1 A9G,G17A (mixed)
RNA 1: B1 RNA 1
RNA 2: B1 RNA 2 with G35A, C37G, A43G, A46C
B18: target 1 insG 3' of 14,insC 3' of 13 (mixed)
RNA 1: B1 RNA 1
RNA 2: B14 RNA 2 with U36A, U37G, A40G, G41C
B19: target 1 U11G,G17A (mixed)
RNA 1: B1 RNA 1
RNA 2: B1 RNA 2 with G35A, C37G, U41G, A46C
B20: target 1 A16C,C22U (mixed)
RNA 1: B1 RNA 1
RNA 2: B1 RNA 2 with C30U, A36C, C37G, A46C
B21: target 1 C7A,U19A (mixed)
RNA 1: B1 RNA 1
RNA 2: B1 RNA 2 with U33A, C37G, C45A, A46C
B22: target 1 C2A,A16G (mixed)
RNA 1: B1 RNA 1
RNA 2: B1 RNA 2 with A36G, C37G, A46C, C50A
B23: target 1 insA 3' of 19,insU 3' of 2 (mixed)
RNA 1: B1 RNA 1
RNA 2: B10 RNA 2 with U34A, A46C, C48G, G49C, C50U, U51C, C52U
B24: target 1 C2G,C7U (mixed)
RNA 1: B1 RNA 1
RNA 2: B1 RNA 2 with C37G, C45U, A46C, C50G
B25: target 1 insC 3' of 12,insC 3' of 10 (mixed)
RNA 1: B1 RNA 1
RNA 2: B14 RNA 2 with U36A, U37G, A40G, G41C, G42U, U44C
B26: target 1 insU 3' of 6,insG 3' of 6 (mixed)
RNA 1: B1 RNA 1
RNA 2: B2 RNA 2 with C41U, U43A, A44U, U45C, C47U, C49G, U50C, G51U
B27: target 1 G17U,C22A (mixed)
RNA 1: B1 RNA 1
RNA 2: B1 RNA 2 with C30A, G35U, C37G, A46C
B28: target 1 insA 3' of 6,insU 3' of 6 (mixed)
RNA 1: B1 RNA 1
RNA 2: B2 RNA 2 with C41U, U43A, A44U, U45C, C47A, G48U, C49G, U50C, G51U
B29: target 1 del4,del11 (mixed)
RNA 1: B1 RNA 1
RNA 2: GGGAAUGGAUCCACAUCUACGAAUUCGUACCAUAGAGAGGUAUCCGUCACCGAGAUCGGAAGAGCACACGU
B30: target 1 insA 3' of 22,insA 3' of 3 (mixed)
RNA 1: B1 RNA 1
RNA 2: B10 RNA 2 with C31A, A32C, U33A, A46C, C48G, G49C, C50U, U51A
B31: target 1 del11,del14 (mixed)
RNA 1: B1 RNA 1
RNA 2: B29 RNA 2 with A38G, G40U, U41A, A42U, U43C, C45G, G46C
B32: target 1 insC 3' of 22,insA 3' of 5 (mixed)
RNA 1: B1 RNA 1
RNA 2: B10 RNA 2 with A32C, U33A, A46C, C48G, G49A
B33: target 1 insU 3' of 18,insU 3' of 13 (mixed)
RNA 1: B1 RNA 1
RNA 2: B14 RNA 2 with G35U, U36G, U37A, A38G, G39A, A40G, G41U

The binders below were run against T1, EsCas13d, nuclease-dead (assay: crRNA (strand 1, pre-loaded); Mg2+; 40 mM Tris-HCl pH 7.5, 150 mM NaCl, 6 mM MgCl2, 1 mM DTT, 0.1% Tween-20, 0.2 mg/ml BSA; 25 C; 10 min per concentration, then washed). Settings: tags: His6-TwinStrep-SUMO cleaved; N-terminal SNAP kept (SNAP-Surface 488); label: 3' end held by stalled T7 RNA polymerase.
B1 showed a Kd of 56 ± 6 nM. Work on B2 yielded a Kd of 7.6 ± 0.7 nM. Work on B3 yielded a Kd of about 60 nM. For B4, the Kd was 12.8 ± 0.8 nM. B5 showed a Kd of 65 ± 15 nM. With B6 the Kd was 80 ± 40 nM. B7 showed a Kd of 47 ± 6 nM. B8 was tested, and the Kd was 13.9 ± 0.9 nM. Binder B9 has a Kd of 51 ± 8 nM. With B10 the Kd was 25.3 ± 2 nM. B11 was tested, and the Kd was 4.34 ± 0.32 nM. B12 showed a Kd of 19.6 ± 1 nM. B13 showed a Kd of 3.4 ± 0.5 nM. For B14, the Kd was 27.7 ± 3.2 nM. Work on B15 yielded a Kd of 99 ± 14 nM. For B16, the Kd was 7.01 ± 0.33 nM. Work on B17 yielded a Kd of 57 ± 12 nM. B18 gave a Kd of 13.7 ± 0.9 nM. B19 showed a Kd of 74 ± 22 nM. With B20 the Kd was 57 ± 12 nM. B21 gave a Kd of 48 ± 5 nM. Binder B22 has a Kd of 28.5 ± 2 nM. In the case of B23, the Kd is reported as 23 ± 2 nM. B24 gave a Kd of 3.82 ± 0.29 nM. In the case of B25, the Kd is reported as 23.9 ± 2.9 nM. B26 gave a Kd of 13.1 ± 0.5 nM. In the case of B27, the Kd is reported as 31.3 ± 3 nM. In the case of B28, the Kd is reported as 28.9 ± 1.4 nM. Binder B29 has a Kd of 100 ± 40 nM. Work on B30 yielded a Kd of 11.1 ± 0.6 nM. B31 was tested, and the Kd was 32.4 ± 1.8 nM. Work on B32 yielded a Kd of 19 ± 4 nM. With B33 the Kd was 38 ± 14 nM.
